Experimental data as given in patent US20180186897A1 (INSTITUTE FOR RESEARCH IN BIOMEDICINE, published 2018).

Columns and labels:
Assay in all cases: flow cytometry, staining of IEs
[1] = molecular target: erythrocytes infected with P. falciparum field isolate 10975
[2] = molecular target: erythrocytes infected with P. falciparum field isolate 9106
[3] = molecular target: erythrocytes infected with P. falciparum field isolate 11019
[4] = molecular target: erythrocytes infected with P. falciparum field isolate 9775
[5] = molecular target: erythrocytes infected with P. falciparum field isolate 10936
[6] = molecular target: erythrocytes infected with P. falciparum field isolate 9215
[7] = molecular target: erythrocytes infected with P. falciparum field isolate 9605
[8] = molecular target: erythrocytes infected with P. falciparum field isolate 11014

Row | Binder | % parasite recognition [1] | % parasite recognition [2] | % parasite recognition [3] | % parasite recognition [4] | % parasite recognition [5] | % parasite recognition [6] | % parasite recognition [7] | % parasite recognition [8]
1 | MGD56 (antibody) VH: QVQLQESGPGLVKPSGTLSLTCAVSGGSITTNNWWSWVRQTPGKGLEWIGEIFRSGTTNYNPSLKSRVAISLDKSKNQFSLKLTSVTAADTAVYYCATASPFKSQRDTKDLPRPSLSAEPGTVIPLGSHVTFVCRGPVGVQTFRLQRESRSLYNDTEDVSHPSPSESEARFRIDSVSEGNAGPYRCVYYKSSKWSEESDCLELLVKTEDVTWARPQPQLDPRACPRGDLRISTDVYYMDVWGKGTTVTVSS VL: AIRMTQSPSSLSASTGDRVTITCRASQAITSYLAWYRQKPGKAPDLLIYNASTLQSGVPSRFSASGSGTDFALTITGLQSEDFVIYFCQHYYTYPPAFGQGTRLEIK | 6.7% | 3.3% | 4.3% | 6.6% | 2.4% | 12% | 17.3% | 9.5%
2 | MGC17 (antibody) VH: EVQLVESGGGLVQPGGSLKLSCVASGFNFRKSWMSWVRQAPGKGLEWVANIREDGSKAYYVDSVKGRFTVSRDNAKNSLYLQINSLRADDTAVYYCARDRFCSDDEDHSHGAEDLPRPSISAEEGTVIPLGSRLTFVCRGPVGVHTFRLERDRRSTYNDTEDVSHPSPSESEARFRIDSVSEGNAGLYRCVYYKSPEWSKQSDYLELLVKGQEVTWALFTSCGGDGEVPDYDMDVRGKGTTVTVSS VL: DIVMTQSPDSLAVSLGERATINCKSSQSVLYRSKNKKYLAWFQQRPGQPPKVLIYWTSTRASGVPDRFSGSGSGTDFTLTISSLQADDVAVYYCQQYFIFPYTFGQGTKLEIR | 1.5% | 1.3% | 7.1% | 2.5% | 2.4% | 16.7% | 6.8% | 1.6%
3 | MGC26 (antibody) VH: EVQLVDSGGGLVQPGGSLRLSCAASGFTFSTYWMTWVRQTPGKGLEWVASIKQDGTERYYVDSVKGRFIISRDNAKNSLYLQMHSLRAEDTAVYYCVRDRFCRDHMHIEEDLPRPSISPEPATVIPLGSHVTIVCRGPVGVETFRLQKESRSLYNDTEDVSQPSPSESEARFRIDSVSEGHGGLYRCLYYKSSKWSEQSDYLEMLVKGEDVTWALFPYCGGDGEESDYYMDVWGKGTTVTVSS VL: DIQLTQSPSTLSASVGDRVTISCRASQRLSRSLAWYQQRPRKAPNLLIYKASPLEIGGPSRFTGSGSGTEFTLTISSLQPDDSATYYCQQYSNYSYSFGQGTKLEIR | 7.3% | 8.5% | 50.8% | 3.4% | 3.6% | 9.5% | 21.1% | 5.4%
4 | MGC28 (antibody) VH: EVQLVESGGGLVQPGGSLRLSCEASGFTFSSYWMTWVRQAPGKGLEWVANINQDGSERYYVDSVKGRFTISRDTVKNSLYLQMNNLRAEDTAVYYCARQRFCSDGSLFHGEDLPRPTISAETGTVISLGSHVTFVCRGPLGVQTFRLERESRSRYSETEDVSQVGPSESEARFRIDSVSEGNAGLYRCIYYKPPKWSEQSDYLELRVKGEDVTWALLTYCGGDRDESDYYMDVWGKGTTVTVSS VL: QTVVTQEPSLTVSPGGTVTLTCASSTGSVTSGSFPNWFQQTPGQAPRSLIYSTTKKHSWTPARFSGSLLGGKAALTVSDTQPEDEAEYYCLLYCGGGQPWVFGGGTKLTVL | 12.3% | 7.5% | 30% | 9.8% | 3% | 10.8% | 20.9% | 2.8%
5 | MGD41 (antibody) VH: EVQLVESGPGLVKPSGTLSVTCTISGGSINTDKWWTWVRQPPGKGLEWVGEVLHTGSTNYNPSLRGRVTISVDKSKNQFSLRLSSVTAADTAVYYCATISTLRPQRDIEDLPRPSLSAEPGTVVPLGSHVTFVCRGPVGVQTFRLERESRSTYNDTEDVSQPSPFESEARFRIDSVSEGNAGPYRCIYYKSPKWSDQSDYVELLVKGEDVTWAPPQSQLAPRACPQGELRTSTDIFSMNVWGKGTTVTVSS VL: AIRMTQSPSSLSAFTGDRVTISCRASQDIGNYLDWYHQKPGRAPKLLIHGASTLLTGVPSRFSGSGSGTDFTLNITCLQSGDFGIYYCLQYYSSPPAFGPGTRLEIK | 7.3% | 3.8% | 6.8% | 8.6% | 6.1% | 14.7% | 17.2% | 6.6%
6 | MGC7 (antibody) VH: EVQLVESGGDLVQPGGSLRLSCAASGFTFRNYWMSWVRQTPGKGLEWVANIRQDGSEKYYVDSVKGRFTISRDNAKNLLYLQMNSLRAEDTAVYYCVRDKFCSDENHMHVADDLPRPSISPEPGTVIPLGSHVTFVCRGPVGVQTFRLEKDRRSTYNDTEDVSQPSPSESEARFRIDSVTEGNAGLYRCVYYKPPKWSDQSDFLELLVKGEDVTWALFPHCGADGEDSDYYMDVWGKGTTVTVSS VL: DIQMTQSPSSVSASVGDRVTITCRASQGLSTWLAWYQQKPGKAPKILIYAASSLQSGVPSRFSGSGSGTDFTLTISSLQPEDFATYYCQQANSFPLTFGGGTKVEIK | 0.7% | 6.9% | 13.8% | 4.6% | 1.7% | 19.3% | 22.8% | 2.9%
7 | MGD47 (antibody) VH: QVRLQESGPGLVKPSGTLSLTCTVSGGSISGYKWWSWVRQAPGKGLEWIGQVYDDGDTNYNPDLKGRVALSVDKSKSRFSLSLASVTAADTAIYFCATISPLRPQSDTGDLPRPSISAEPGTAIPLGSQVTFVCRGPIGVQTFRLERESRALYNDSEDVSQVSPSASEARFRIDSVSEGNAGPYRCIYYKARRWSDQSDYLELLVKGEDVTWALPQSQLAPRACPQEDLNISTDIFSTNVWGKGTTVTVSS VL: AIRMTQSPASLSASVGDRVTITCRTSQDVGNYLDWYQQKPGKAPKLLIHGASTLQAGVPSRFNGSGSGTDFTLGISCVQSGDFAIYYCQQYYTSPPVFGQGTRLEIK | 11.2% | 10.7% | 24.6% | 14.4% | 11.3% | 22.3% | 28.7% | 10.2%
8 | MGD55 (antibody) VH: QVQLQESGPGLVKPSGTLSLTCTVSGGSISAYKWWSWVRQAPGKGLEWIGQVYHNGNTNYNPSLKGRVAMSVDKSKNRFSLRLASVTAADTAVYYCATISPLRPQSDTDDLPRPSISAEPGTVIPLGSHVTFVCRGPIGVQTFRLERESRSLYSDTEDVSQVSPFASEARFRIDSVSEGNAGPYRCIYYKDRKWSDQSDYLELLVKGEDVTWALPQSQLAPRACPQEELNISTDIFSMNVWGKGTTVTVSS VL: AIRMTQSPASLSASIGDRVTITCRTSQDVGNYLDWYQQKPGKAPKLLIHGASTLQTGVPSRFSGSGAGTDFTLNITCLQSGDFAMYYCQQYYSSPPGFGQGTRLEIK | 15.6% | 14.3% | 33.1% | 19.4% | 13.3% | 38.8% | 37.2% | 14.7%
